# Assay results: article PMC10754036
# Target: PSD95, His tagged recombinant (UniProt P78352)
# Test: BLI
# PSD95, His tagged recombinant, sequence (P78352 whole entry): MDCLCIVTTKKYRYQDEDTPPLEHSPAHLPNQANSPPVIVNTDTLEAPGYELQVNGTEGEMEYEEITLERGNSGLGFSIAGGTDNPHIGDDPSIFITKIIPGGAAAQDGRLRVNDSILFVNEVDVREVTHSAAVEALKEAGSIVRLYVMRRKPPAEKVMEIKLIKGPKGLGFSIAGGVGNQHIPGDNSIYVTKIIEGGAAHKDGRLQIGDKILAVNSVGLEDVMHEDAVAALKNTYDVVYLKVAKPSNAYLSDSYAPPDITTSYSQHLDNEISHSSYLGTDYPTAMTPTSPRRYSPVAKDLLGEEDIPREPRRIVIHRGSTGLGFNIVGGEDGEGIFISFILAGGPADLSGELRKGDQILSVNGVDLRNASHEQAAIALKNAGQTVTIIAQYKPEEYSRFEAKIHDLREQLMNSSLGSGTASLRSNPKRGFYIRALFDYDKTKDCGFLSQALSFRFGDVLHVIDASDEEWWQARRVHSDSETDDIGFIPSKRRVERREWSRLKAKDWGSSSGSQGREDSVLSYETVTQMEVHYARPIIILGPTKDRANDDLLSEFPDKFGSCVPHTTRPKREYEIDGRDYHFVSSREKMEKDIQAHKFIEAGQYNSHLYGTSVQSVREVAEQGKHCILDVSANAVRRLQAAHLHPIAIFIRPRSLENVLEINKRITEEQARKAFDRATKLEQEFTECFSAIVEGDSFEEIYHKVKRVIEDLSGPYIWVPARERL
substance,measurement,value
"NS1-SUMO (1918 NS1 covalently fused with SUMO at its C-terminus), His tagged recombinant",Kd,630 nM
